Laboratory results from patent publication US20220363757A1 (SYMPHOGEN A S, published 2022).
Substitutions are numbered along the chain they refer to.

Experiments:
Assay in all cases: SPR, Fab over captured mutant LAG-3-Fc;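 also: LAG-3 fusion proteins captured on an anti-human IgG Fc sensor chip and read on an IBIS MX96 biosensor, Fab association and dissociation each 15 min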
[1] = target: T1, human LAG-3 domain 1-2 Fc fusion, chimeric construct #15 (mutated region AA 95-100) (human, UniProt P18627 23-266)
T1 construct: not shown: human IgG1 Fc, AA P101-K330
T1 chain: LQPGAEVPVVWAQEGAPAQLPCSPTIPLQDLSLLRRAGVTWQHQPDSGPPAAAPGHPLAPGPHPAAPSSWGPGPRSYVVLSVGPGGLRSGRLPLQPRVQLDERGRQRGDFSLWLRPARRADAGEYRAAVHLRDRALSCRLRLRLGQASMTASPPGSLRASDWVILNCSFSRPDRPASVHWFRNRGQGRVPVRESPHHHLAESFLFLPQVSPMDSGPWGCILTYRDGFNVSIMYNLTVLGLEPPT

[2] = target: T2, human LAG-3 domain 1-2 Fc fusion, chimeric construct #25 (mutated region AA 154-158) (human, UniProt P18627 23-266)
T2 construct: not shown: human IgG1 Fc, AA P101-K330
T2 chain: T1 chain with G73R, S76R, V78T, R132P, A135D, L136F

[3] = target: T3, human LAG-3 domain 1-2 Fc fusion, chimeric construct #23 (mutated region AA 148-152) (human, UniProt P18627 23-266)
T3 construct: not shown: human IgG1 Fc, AA P101-K330
T3 chain: T1 chain with G73R, S76R, V78T, R126H, A128F, H130R

[4] = target: T4, human LAG-3 domain 1-2 Fc fusion, chimeric construct #8 (mutated region AA 59-66) (human, UniProt P18627 23-266)
T4 construct: not shown: human IgG1 Fc, AA P101-K330
T4 chain: T1 chain with A37G, G38W, Q44R, G73R, S76R, V78T

[5] = target: T5, human LAG-3 domain 1-2 Fc fusion, chimeric construct #26 (mutated region AA 157-161) (human, UniProt P18627 23-266)
T5 construct: not shown: human IgG1 Fc, AA P101-K330
T5 chain: T1 chain with G73R, S76R, V78T, A135D, L136F, R139S

[6] = target: T6, human LAG-3 domain 1-2 Fc fusion, chimeric construct #16 (mutated region AA 98-105) (human, UniProt P18627 23-266)
T6 construct: not shown: human IgG1 Fc, AA P101-K330
T6 chain: T1 chain with G73R, S81M, V82R, G83A

[7] = target: T7, human LAG-3 domain 1-2 Fc fusion, chimeric construct #4 (mutated region AA 40-47) (human, UniProt P18627 23-266)
T7 construct: not shown: human IgG1 Fc, AA P101-K330
T7 chain: T1 chain with A18V, Q19H, P24L, T25E, G73R, S76R, V78T

[8] = target: T8, human LAG-3 domain 1-2 Fc fusion, chimeric construct #18 (mutated region AA 114-119) (human, UniProt P18627 23-266)
T8 construct: not shown: human IgG1 Fc, AA P101-K330
T8 chain: T1 chain with G73R, S76R, V78T, L92Q, Q95L, P96S, R97H

[9] = target: T9, human LAG-3 domain 1-2 Fc fusion, chimeric construct #5 (mutated region AA 46-51) (human, UniProt P18627 23-266)
T9 construct: not shown: human IgG1 Fc, AA P101-K330
T9 chain: T1 chain with P24L, T25E, I26F, L28H, Q29L, G73R, S76R, V78T

B1: Fab fragment of antibody 15532 (Fab, V domains shown, not shown: a dimerising Fc or GST)
VH: QVQLQQWGAGLLRPSETLSLTCAVYGESFSGYYWNWIRQPPGKGLEWIGEINHSGSTNYNPSLKSRVTISVDTSKTQFSLKLSSVTAADTAVYYCARGWDLLDWNDYWNEYWGQGTLVTVSS
VL: EIVLTQSPATLSLSPGERATLSCRASQSVSSYLAWYQQKPGQAPRLLIYDASNRATGIPARFSGSGSGTDFTLTISSLEPEDFAVYYCQQRSNWPLTFGGGTKVEIKR
notes: monomeric Fab made by GingisKHAN digestion of the IgG1
[1]
  KD mutant/KD wild type: 6.5 fold
[2]
  KD mutant/KD wild type: 1.1 fold
[3]
  KD mutant/KD wild type: 2.5 fold
[4]
  KD mutant/KD wild type: 2.7 fold
[5]
  KD mutant/KD wild type: 1.1 fold
[6]
  KD mutant/KD wild type: 6.3 fold
[7]
  KD mutant/KD wild type: 3.9 fold
[8]
  KD mutant/KD wild type: 1.1 fold
[9]
  KD mutant/KD wild type: 2.7 fold

B2: Fab fragment of antibody 15011 (Fab, V domains shown, not shown: a dimerising Fc or GST)
VH: EVQLLESGGGLVQPGGSLRLSCAASGFDFRSYAMMWVRQAPGKGLEWVGGINGEVGGSNTYYAPAVKGRATISRDNSKNTLYLQMNSLRAEDTAVYYCVKGAGACGICNDDIDAWGQGTLVTVSS
VL: SYELTQDPAVSVALGQTVRITCSGAGSYAGSYYYGWHQQKPGQAPVTVIYDNDKRPSNIPDRFSGSSSGNTASLTITGAQAEDEADYYCGSTNDNDDGGLFGSGTKVTVLG
notes: as for B1
[1]
  KD mutant/KD wild type: 1.9 fold
[2]
  KD mutant/KD wild type: 1.9 fold
[3]
  KD mutant/KD wild type: 2 fold
[4]
  KD mutant/KD wild type: 0.5 fold
[5]
  KD mutant/KD wild type: 0.7 fold
[6]
  KD mutant/KD wild type: 7.2 fold
[7]
  KD mutant/KD wild type: 0.5 fold
[8]
  KD mutant/KD wild type: 2.1 fold
[9]
  KD mutant/KD wild type: 0.5 fold

B3: Fab fragment of antibody 15431 (Fab, V domains shown, not shown: a dimerising Fc or GST)
VH: QVQLQQSGPGLVKPSQTLSLTCAISGDSVSSNSAAWNWIRQSPSRGLEWLGRTYYRSKWYNDYAVSVKSRITINPDTSKNQFSLQLNSVTPEDTAVYYCARDDDWNDFDYWGQGTLVTVSS
VL: B1 VL
notes: as for B1
[1]
  binding result: no binding (tested: 300 nM)
[2]
  KD mutant/KD wild type: 0.8 fold
[3]
  KD mutant/KD wild type: 3.5 fold
[4]
  binding result: no binding (tested: 300 nM)
[5]
  KD mutant/KD wild type: 0.6 fold
[6]
  binding result: no binding (tested: 300 nM)
[7]
  binding result: no binding (tested: 300 nM)
[8]
  KD mutant/KD wild type: 0.6 fold
[9]
  binding result: no binding (tested: 300 nM)

B4: Fab fragment of antibody 15572 (Fab, V domains shown, not shown: a dimerising Fc or GST)
VH: QLQLQESGPGLVKPSETLSLTCTVSGDSISSSSYYWGWIRQPPGKGLEWIGSIFYSGNTYYNPSLKSRVTISVDTSKNQFSLKLSSVTAADTAVYYCAREDDFLTDYYGAFDIWGQGTMVTVSS
VL: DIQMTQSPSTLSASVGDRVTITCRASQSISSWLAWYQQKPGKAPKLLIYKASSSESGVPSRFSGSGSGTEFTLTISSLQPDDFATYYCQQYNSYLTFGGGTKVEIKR
notes: as for B1
[1]
  KD mutant/KD wild type: 3.1 fold
[2]
  binding result: no binding (tested: 300 nM)
[3]
  binding result: no binding (tested: 300 nM)
[4]
  binding result: no binding (tested: 300 nM)
[5]
  binding result: no binding (tested: 300 nM)
[6]
  binding result: no binding (tested: 300 nM)
[7]
  binding result: no binding (tested: 300 nM)
[8]
  KD mutant/KD wild type: 0.6 fold
[9]
  binding result: no binding (tested: 300 nM)
